Results published in US20030059419.
Changes are numbered by the printed parent chain. Numbers in names are those of the source.

Assays:
[1] = target: T1, GST-I-TRAF (human I-TRAF as a chimera protein with glutathione S transferase, purified from E. coli), Q92844
T1 chain: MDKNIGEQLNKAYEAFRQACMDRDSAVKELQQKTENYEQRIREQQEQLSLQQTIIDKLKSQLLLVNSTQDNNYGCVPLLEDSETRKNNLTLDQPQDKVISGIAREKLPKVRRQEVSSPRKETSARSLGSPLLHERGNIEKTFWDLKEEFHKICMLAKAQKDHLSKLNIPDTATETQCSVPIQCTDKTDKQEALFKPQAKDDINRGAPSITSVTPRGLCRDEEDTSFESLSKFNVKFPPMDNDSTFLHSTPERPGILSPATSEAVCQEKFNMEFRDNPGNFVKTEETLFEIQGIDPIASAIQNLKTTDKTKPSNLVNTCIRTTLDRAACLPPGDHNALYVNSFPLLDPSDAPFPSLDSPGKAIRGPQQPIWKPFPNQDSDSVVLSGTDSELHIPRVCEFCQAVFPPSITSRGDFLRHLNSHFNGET

[2] = target: GST-IκB-αN protein (AA), GST-IκB-αN with the No. 32 and No. 36 serine residues replaced by alanine [GST: P08515]
[3] = target: GST-IκB-αN protein (WT), amino acids 1-72 of IκB-α fused to GST [GST: P08515]
[4] = target: Myc-I-TRAF (1-247) defective mutant, human I-TRAF amino acids No. 1-247 with N-terminal Myc, Q92844
[5] = target: T2, Myc-I-TRAF (human I-TRAF, full length, with a Myc epitope added to the N-terminal), Q92844
T2 chain: T1 chain

B1: Flag-IKK-i (human IKK-i with a Flag epitope linked to the N-terminal) (protein)
chain: MQSTANYLWHTDDLLGQGATASVYKARNKKSGELVAVKVFNTTSYLRPREVQVREFEVLRKLNHQNIVKLFAVEETGGSRQKVLVMEYCSSGSLLSVLESPENAFGLPEDEFLVVLRCVVAGMNHLRENGIVHRDIKPGNIMRLVGEEGQSIYKLTDFGAARELDDDEKFVSVYGTEEYLHPDMYERAVLRKPQQKAFGVTVDLWSIGVTLYHAATGSLPFIPFGGPRRNKEIMYRITTEKPAGAIAGAQRRENGPLEWSYTLPITCQLSLGLQSQLVPILANILEVEQAKCWGFDQFFAETSDILQRVVVHVFSLSQAVLHHIYIHAHNTIAIFQEAVHKQTSVAPRHQEYLFEGHLCVLEPSVSAQHIAHTTASSPLTLFSTAIPKGLAFRDPALDVPKFVPKVDLQADYNTAKGVLGAGYQALRLARALLDGQELMFRGLHWVMEVLQATCRRTLEVARTSLLYLSSSLGTERFSSVAGTPEIQELKAAAELRSRLRTLAEVLSRCSQNITETQESLSSLNRELVKSRDQVHEDRSIQQIQCCLDKMNFIYKQFKKSRMRPGLGYNEEQIHKLDKVNFSHLAKRLLQVFQEECVQKYQASLVTHGKRMRVVHETRNHLRLVGCSVAACNTEAQGVQESLSKLLEELSHQLLQDRAKGAQASPPPIAPYPSPTRKDLLLHMQELCEGMKLLASDLLDNNRIIERLNRVPAPPDV
in vitro kinase assay with purified GST-I-TRAF (1.0 µg) added to the anti-Flag immunoprecipitate [1]: in cells in which Flag-IKK-i was expressed, phosphorylation of GST-I-TRAF was observed | in vitro kinase assay ([γ-32P]ATP, 30° C., 20 minutes, SDS-PAGE, autoradiography) [2]: IKK-i did not phosphorylate GST-IκB-αN protein (AA) | in vitro kinase assay ([γ-32P]ATP, 30° C., 20 minutes, SDS-PAGE, autoradiography) [3]: IKK-i phosphorylated GST-IκB-αN protein (WT) | in vitro kinase assay on immunoprecipitates, I-TRAF deletion mutants [4]: phosphorylations of FL (lanes 4 and 8) and Myc-I-TRAF (1-247)(lanes 2 and 6) were confirmed | in vitro kinase assay ([γ-32P]ATP) on immunoprecipitates [5]: Bands of phosphorylated Myc-I-TRAF were detected in both of immunoprecipitates with anti-Flag antibody (lane 2) or anti-Myc antibody (lane 4) | in vitro kinase assay on immunoprecipitates, I-TRAF deletion mutants [5]: phosphorylations of FL (lanes 4 and 8) and Myc-I-TRAF (1-247)(lanes 2 and 6) were confirmed

B2: mutant IKK-i (K38A), Flag-tagged human IKK-i with the No. 38 lysine replaced by alanine (protein)
chain: B1 chain with K38A
in vitro kinase assay with purified GST-I-TRAF (1.0 µg) added to the anti-Flag immunoprecipitate [1]: No phosphorylation was observed with the K38A mutant | in vitro kinase assay ([γ-32P]ATP, 30° C., 20 minutes, SDS-PAGE, autoradiography) [3]: K38A-IKK-i did not phosphorylate GST-IκB-αN protein (WT)
